T1: human recombinant (r)BCMA_Fc-AF647 (human, UniProt Q02223 1-54, AF647 fluorescent label (site not stated))
T1 construct: Staining reagent for CAR detection by flow cytometry; not shown: Fc part
T1 sequence (looked up): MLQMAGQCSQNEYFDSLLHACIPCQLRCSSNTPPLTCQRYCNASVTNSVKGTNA

B1: PI61 BCMA CAR (other)
chain: QVQLQESGGGVVQPGRSLRLSCAASGFTFSSYGMHWVRQAPGKGLEWVAVISYDGSNKYYADSVKGRFTISRDNSKNTLYLQMNSLRAEDTAVYYCGGSGYALHDDYYGLDVWGQGTLVTVSSGGGGSGGGGSGGGGSQSALTQPASVSGSPGQSITISCTGTSSDVGGYNYVSWYQQHPGKAPKLMIYDVSNRPSGVSNRFSGSKSGNTASLTISGLQAEDEADYYCSSYTSSSTLYVFGSGTKVTVLTTTPAPRPPTPAPTIASQPLSLRPEACRPAAGGAVHTRGLDFACDIYIWAPLAGTCGVLLLSLVITLYCKRGRKKLLYIFKQPFMRPVQTTQEEDGCSCRFPEEEEGGCELRVKFSRSADAPAYQQGQNQLYNELNLGRREEYDVLDKRRGRDPEMGGKPRRKNPQEGLYNELQKDKMAEAYSEIGMKGERRRGKGHDGLYQGLSTATKDTYDALHMQALPPR
notes: Chimeric antigen receptor expressed on JNL cells or primary human T cells after lentiviral transduction; also called P161
B2: B61-02 BCMA CAR (other)
chain: QVQLVESGGGVVQPGRSLRLSCAASGFTFSSYGMHWVRQAPGKGLEWVAVISYKGSNKYYADSVKGRFTISRDNSKNTLYLQMNSLRAEDTAVYYCGGSGYALHDDYYGLDVWGQGTLVTVSSGGGGSGGGGSGGGGSGGGGSQSALTQPASVSGSPGQSITISCTGTSSDVGGYNYVSWYQQHPGKAPKLMIYEVSNRLRGVSNRFSGSKSGNTASLTISGLQAEDEADYYCSSYTSSSALYVFGSGTKVTVLTTTPAPRPPTPAPTIASQPLSLRPEACRPAAGGAVHTRGLDFACDIYIWAPLAGTCGVLLLSLVITLYCKRGRKKLLYIFKQPFMRPVQTTQEEDGCSCRFPEEEEGGCELRVKFSRSADAPAYQQGQNQLYNELNLGRREEYDVLDKRRGRDPEMGGKPRRKNPQEGLYNELQKDKMAEAYSEIGMKGERRRGKGHDGLYQGLSTATKDTYDALHMQALPPR
notes: Chimeric antigen receptor expressed on JNL cells or primary human T cells after lentiviral transduction
B3: B61-10 BCMA CAR (other)
chain: QVQLVESGGGVVQPGRSLRLSCAASGFTFSSYGMHWVRQAPGKGLEWVAVISYKGSNKYYADSVKGRFTISRDNSKNTLYLQMNSLRAEDTAVYYCGGSGYALHDDYYGLDVWGQGTLVTVSSGGGGSGGGGSGGGGSGGGGSQSALTQPASVSGSPGQSITISCTGTSSDVGGYNYVSWYQQHPGKAPKLMIYEVSNRLRGVSNRFSGSKSGNTASLTISGLQAEDEADYYCSSYTSSSTLYVFGSGTKVTVLTTTPAPRPPTPAPTIASQPLSLRPEACRPAAGGAVHTRGLDFACDIYIWAPLAGTCGVLLLSLVITLYCKRGRKKLLYIFKQPFMRPVQTTQEEDGCSCRFPEEEEGGCELRVKFSRSADAPAYQQGQNQLYNELNLGRREEYDVLDKRRGRDPEMGGKPRRKNPQEGLYNELQKDKMAEAYSEIGMKGERRRGKGHDGLYQGLSTATKDTYDALHMQALPPR
notes: as for B2
B4: Hy52 BCMA CAR (other)
chain: EVQLVESGGGLVKPGGSLRLSCAASGFTFSSFRMNWVRQAPGKGLEWVSSISSSSSYIYYADSVKGRFTISRDNAKNSLYLQMNSLRAEDTAVYYCARWLSYYGMDVWGQGTTVTVSSGGGGSGGGGSGGGGSGGGGSDIVMTQTPLSLPVTPGEPASISCRSSQSLLDSDDGNTYLDWYLQKPGQSPQLLIYTLSFRASGVPDRFSGSGSGTDFTLKIRRVEAEDVGVYYCMQRIGFPITFGQGTRLEIKTTTPAPRPPTPAPTIASQPLSLRPEACRPAAGGAVHTRGLDFACDIYIWAPLAGTCGVLLLSLVITLYCKRGRKKLLYIFKQPFMRPVQTTQEEDGCSCRFPEEEEGGCELRVKFSRSADAPAYQQGQNQLYNELNLGRREEYDVLDKRRGRDPEMGGKPRRKNPQEGLYNELQKDKMAEAYSEIGMKGERRRGKGHDGLYQGLSTATKDTYDALHMQALPPR
notes: as for B2
B5: Hy03 BCMA CAR (other)
chain: EVQLVESGGGLVQPGGSLRLSCAASGFTFSGFWMSWVRQAPGKGLEWVANIKQDGSEKYYVDSVRGRFTISRDNAKNSLYLQMNSLRAEDTAVYYCARALDYYGMDVWGQGTTVTVSSGGGGSGGGGSGGGGSGGGGSDIVMTQTPLSLPVTPGEPASISCRSSQSLLDSDDGNTYLDWYLQKPGQSPRLLIYTLSYRASGVPDRFSGSGSGTDFTLKISRVEAEDVGLYYCTQRLEFPSITFGQGTRLEIKTTTPAPRPPTPAPTIASQPLSLRPEACRPAAGGAVHTRGLDFACDIYIWAPLAGTCGVLLLSLVITLYCKRGRKKLLYIFKQPFMRPVQTTQEEDGCSCRFPEEEEGGCELRVKFSRSADAPAYQQGQNQLYNELNLGRREEYDVLDKRRGRDPEMGGKPRRKNPQEGLYNELQKDKMAEAYSEIGMKGERRRGKGHDGLYQGLSTATKDTYDALHMQALPPR
notes: as for B2

Biological target: T1, human recombinant (r)BCMA_Fc-AF647
Assay: flow cytometry, rBCMA_Fc-AF647 staining of CAR-transduced primary human T cells
Excerpt: The following 8 CARs were chosen for analysis of CAR expression, stability and efficacy in primary T cells: R1B6, R1F2, RIGS, PI61, B61-10, B61-02, Hy03, and Hy52. BCMA CAR T cells were generated by starting with blood from healthy apheresed donors whose T cells (CD4+ and CD8+ lymphocytes) were obtained by negative selection for CD3+ T cells. These cells were activated by the addition of CD3/CD28 beads (Dynabeads® Human T-Expander CD3/CD28, Thermo Fisher Scientific) at a ratio of 1:3 (T cell to bead) in T cell medium (RPMI1640, 10% heat-inactivated fetal calf serum (FCS), 2 mM L-glutamine, 1× Penicillin/Streptomycin, 100 μM non-essential amino acids, 1 mM Sodium Pyruvate, 10 mM Hepes, and 55 μM 2-mercaptoethanol). T cells were cultured at 0.5×10⁶ T cells in 1 mL medium per well of a 24-well plate at 37° C., 5% CO₂. After 24 hours, when T cells were blasting, T cells were transduced with BCMA CAR virus at a multiplicity of infection (MOI) of 5. T cells began to divide in a logarithmic growth pattern, which was monitored by measuring the cell counts per mL, and T cells were diluted in fresh medium every two days and de-beaded and harvested for further analyses at day 9. Aliquots of T cells were stained to measure CAR expression by flow cytometry at day 5 and 9 on a FACS Fortessa (BD). All BCMA CAR T cells were produced under research grade (i.e., not clinical grade) manufacturing conditions.
The BCMA-CAR surface expression and its stability was assessed by measuring CAR % and MFI (mean fluorescence intensity) at day 5 and day 9 using flow cytometry analyses of rBCMA_Fc-AF647 stained cells (FIG. 2 and Table 17).

Binder	CAR % on T cells, Day 5 [%]	CAR % on T cells, Day 9 [%]	CAR MFI on T cells, Day 5 [MFI]	CAR MFI on T cells, Day 9 [MFI]
B1	47.4	42.3	24400	2100
B2	33.5	23.6	29100	3470
B3	41.1	30.3	27300	3290
B4	35.1	36.1	33700	2860
B5	33.7	18.1	9460	929
